Experimental data from the supplement of paper PMC10724198.
± gives the standard deviation of the averaged measurements.

system: Saccharomyces cerevisiae; test: protein stability index of tFT-peptide fusion (C-terminal peptide) (PSI (0-1 scale)); higher = more stable (slower turnover); conditions: genetic background: wild type; temperature: 30 C
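Also: PSI is a weighted mean of sequencing reads over stability bins, variants kept only with over 10 reads, mCherry proximal and sfGFP distal, peptide attached via GGGS linker.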

Row | Sequence | protein stability index
1 | RVWSMYCSEANG | 0.666 ± 0.017
2 | LAAGGSAGTRVV | 0.656 ± 0.026
3 | AFALFVGKVLRC | 0.566 ± 0.021
4 | PTPPPRPPLSPP | 0.692 ± 0.046
5 | LRFLPHIPSGLS | 0.716 ± 0.019
6 | PPTPPPNPPSRY | 0.715 ± 0.021
7 | KQWGTHSSWLEV | 0.701 ± 0.076
8 | GRCGRFVGAAWG | 0.741 ± 0.17
9 | GGGDFDTLWDSR | 0.789 ± 0.03
10 | GGGGGGIGVGMG | 0.705 ± 0.024
11 | MCFLSCCSFRFC | 0.6162 ± 0.0044
12 | YLLPSTPPPRIP | 0.6912 ± 0.0048
13 | KTQNVNDQGEET | 0.644 ± 0.062
14 | RAKGGFDPKCYS | 0.749 ± 0.076
15 | IRDLFHHFFLSV | 0.654 ± 0.038
16 | GGVRVPRVDVVG | 0.618 ± 0.042
17 | PPPAWTPPPRTA | 0.7163 ± 0.001
18 | MGKNDSITPELA | 0.712 ± 0.029
19 | PPLPYPCPPVFV | 0.581 ± 0.012
20 | PSPLLSPPPPRP | 0.706 ± 0.024
21 | ILLFISGPPMSF | 0.735 ± 0.062
22 | STLCVRLITSAR | 0.649 ± 0.077
23 | PPPSLPPPSATA | 0.689 ± 0.087
24 | QRSQASIPGQEV | 0.579 ± 0.091
25 | LSTPPRLPQPSP | 0.703 ± 0.051
26 | GEIGVRGYQAEE | 0.739 ± 0.029

Row | Sequence | protein stability index
27 | REVYLFSSSCRG | 0.623 ± 0.027
28 | RSKPIQAIPNPV | 0.69 ± 0.03
29 | LPPSSPLPPPPP | 0.77 ± 0.047
30 | KKKKKQRMKRNG | 0.674 ± 0.049
31 | LNGSRDEHKVMS | 0.674 ± 0.022
32 | HIEGRKHKDVAM | 0.668 ± 0.062
33 | SISRPSEHHLTQ | 0.673 ± 0.023
34 | SGQVFADGSYAD | 0.699 ± 0.015
35 | NRGGRKAINENG | 0.685 ± 0.036
36 | ASLEASFYVVPC | 0.641 ± 0.014
37 | VASTSLPDIRGV | 0.631 ± 0.07
38 | PPSLTPAALPAA | 0.745 ± 0.072
39 | RVQLPSRITQKA | 0.596 ± 0.023
40 | YCGGWCGGWEIG | 0.709 ± 0.0075
41 | YKMTFVRGQGYE | 0.69 ± 0.041
42 | GISGRPDGGRGG | 0.658 ± 0.0071
43 | LAPPHLPPPLHK | 0.678 ± 0.053
44 | SHPLFLPALSPP | 0.721 ± 0.061
45 | GSYIPSPKKNKC | 0.7086 ± 0.0029
46 | RPSTSRKVKIDV | 0.663 ± 0.066
47 | DRTITPSSVISL | 0.705 ± 0.047
48 | SVVVIGSSYASG | 0.5899 ± 0.0023
49 | LGFLRRERLVPS | 0.697 ± 0.057
50 | FFLLGRGVCLGA | 0.663 ± 0.054
51 | SMSPHKCSVCFC | 0.644 ± 0.045
52 | GGGGGVGGVGRV | 0.668 ± 0.062

Row | Sequence | protein stability index
53 | PPLLLLRRRSPS | 0.699 ± 0.062
54 | GNTNIYIVMRES | 0.5935 ± 0.0031
55 | GARTPVPRHRVH | 0.6396 ± 0.0011
56 | EKKIDPTVKEGK | 0.663 ± 0.0094
57 | SLAVATAVLLYP | 0.666 ± 0.035
58 | HLWAPRQNTIRY | 0.649 ± 0.091
59 | PPPSLSPAPAPP | 0.736 ± 0.027
60 | PLTACPSAPTLP | 0.667 ± 0.0078
61 | ARSRLAPLSVLA | 0.548 ± 0.029
62 | PGCPRDRLLLQL | 0.67 ± 0.025
63 | TPSFTLNAYMLT | 0.693 ± 0.014
64 | CGVCRGSCGGYG | 0.583 ± 0.016
65 | LTSLIPPLPFLF | 0.669 ± 0.032
66 | WWGAKLDGKVSE | 0.813 ± 0.0089
67 | AFFRLSLPGARA | 0.654 ± 0.011
68 | VAACVSLFCGAL | 0.719 ± 0.074
69 | RPPSPILPSSSP | 0.714 ± 0.077
70 | SNWLMTYIIRRK | 0.641 ± 0.012
71 | FELVEAAYISEE | 0.626 ± 0.058
72 | RLDRGLHIKAIT | 0.704 ± 0.014
73 | RKSKRLDQSCTR | 0.703 ± 0.035
74 | DLHFAVVFPISR | 0.733 ± 0.013
75 | VECEARTVEKAN | 0.63072 ± 0.00022
76 | RMIQKFGLGVVV | 0.5613 ± 0.0047
77 | PDHPTLPRRNPL | 0.743 ± 0.039
78 | GKPFAWVAVVGD | 0.729 ± 0.051

Row | Sequence | protein stability index
79 | QCIQQNVSSSRA | 0.646 ± 0.014
80 | WTNRVPLYALPT | 0.657 ± 0.0081
81 | FHDVVSKKHSLK | 0.705 ± 0.032
82 | SPPLRTFPVTLP | 0.644 ± 0.1
83 | THMSPLPTSERW | 0.678 ± 0.085
84 | HTAITSGYSRGL | 0.633 ± 0.049
85 | KTKDGKNNRRTN | 0.687 ± 0.009
86 | SPFLPLHRPRML | 0.653 ± 0.018
87 | LAGNNVSFMRVR | 0.714 ± 0.059
88 | PPLPPPPLLPAP | 0.726 ± 0.019
89 | CFNGRVGGGGMR | 0.636 ± 0.086
90 | VGHCSEGTFYPG | 0.65 ± 0.12
91 | HRSHVRHSFPNP | 0.703 ± 0.038
92 | SRASATYLFNLH | 0.622 ± 0.012
93 | PLALLHSHPPAN | 0.677 ± 0.0066
94 | HDMTGARKTHIA | 0.676 ± 0.023
95 | KSKTENKEKATK | 0.716 ± 0.1
96 | PSPLPSSGHPPP | 0.6206 ± 0.0046
97 | DKPRKVLPNENS | 0.6871 ± 0.0017
98 | VLSLPPLFRTSA | 0.636 ± 0.0086
99 | WYITVMSHFNET | 0.753 ± 0.009
100 | GSTRWGSAEGRG | 0.662 ± 0.21
101 | GGGEYHTIMRTT | 0.786 ± 0.2
